No end group written: not given here.
What was measured:
[1] = target: T1, Cdc42^2-178 (C-terminally truncated Cdc42 lacking its geranylgeranylation motif) (UniProt Q05062 2-178); test: FP; GMPPNP-loaded Cdc42
[2] = target: T1, Cdc42^2-178 (C-terminally truncated …); test: FP; GDP-loaded Cdc42

T1 sequence (Q05062 2-178): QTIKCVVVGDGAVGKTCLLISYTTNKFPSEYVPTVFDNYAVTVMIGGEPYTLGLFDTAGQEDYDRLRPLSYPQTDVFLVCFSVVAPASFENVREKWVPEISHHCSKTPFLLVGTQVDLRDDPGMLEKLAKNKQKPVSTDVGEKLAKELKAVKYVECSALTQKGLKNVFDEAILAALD

Kd [1]: 264 µM
Kd [2]: 1120 µM
Binder: QISTPSDFMHIVHMGPAPVMELQQNFIDLQ (also: FITC label, position not given here) [FITC-labeled CRIB peptide of C. elegans MRCK1 (residues 1543-1572)]
